Assay results taken from the supplement of paper PMC10126150.
± gives the standard deviation of the averaged measurements.

System: ATP
Test: switch fluorescence ratio, 500 uM ATP over buffer (Cy3 cluster intensity, sum of 5 cycles each) (fold (ratio)); higher = stronger signal-on switching upon ATP binding; sequences stand for … in TCGTCGGCAGCGTCAGATGTGTATAAGAGACAGTTTTTTTTTTTTTTTTTTTTTTTTT…TC
Conditions: aptamer strand: ATP DNA aptamer (quencher-CACCTGGGGGAGTATTGCGGAGGAAGG + anchor), 100 nM annealed; ATP concentration: 500 uM
Method in brief: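 Clusters with intensities outside 100-1000 RFU were excluded. The remaining Cy3-labelled switching-strand clusters on a modified Illumina MiSeq flow-cell had been annealed to 100 nM quencher-labelled ATP aptamer and imaged in selection buffer, then after 15 min with 500 uM ATP at 22 °C, for five cycles separated by NaOH stripping and re-annealing. The fluorescence ratio, averaged per switch-domain sequence, is each cluster's summed target-cycle Cy3 intensity over its summed buffer-cycle Cy3 intensity.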
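Also: ATP exposure 15 min at 22 °C before imaging.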

TAAGGGTTCT
switch fluorescence ratio: 0.9916 ± 0.0089

TAAGGTAAAA
switch fluorescence ratio: 1.001 ± 0.0041

TAAGGTAACG
switch fluorescence ratio: 1.05 ± 0.12

TAAGGTAAGG
switch fluorescence ratio: 1.01 ± 0.031

TAAGGTATTA
switch fluorescence ratio: 0.972 ± 0.019

TAAGGTGAGG
switch fluorescence ratio: 1.04 ± 0.023

TAAGGTGATG
switch fluorescence ratio: 1.01 ± 0.046

TAAGGTGGGA
switch fluorescence ratio: 0.996 ± 0.03

TAAGGTGGTT
switch fluorescence ratio: 0.976 ± 0.034

TAAGGTTACT
switch fluorescence ratio: 0.977 ± 0.035

TAAGGTTGGC
switch fluorescence ratio: 1.02 ± 0.04

TAAGTAGCAG
switch fluorescence ratio: 0.997 ± 0.025

TAAGTATTTT
switch fluorescence ratio: 1.01 ± 0.027

TAAGTCGAAA
switch fluorescence ratio: 1 ± 0.019

TAAGTCGTTG
switch fluorescence ratio: 1.03 ± 0.12

TAAGTGAAAA
switch fluorescence ratio: 0.995 ± 0.0094

TAAGTGCAAG
switch fluorescence ratio: 1.01 ± 0.033

TAAGTGGAAC
switch fluorescence ratio: 1.002 ± 0.0063

TAAGTGGGTT
switch fluorescence ratio: 0.992 ± 0.034

TAAGTGTAGC
switch fluorescence ratio: 1.035 ± 0.0035

TAAGTGTATG
switch fluorescence ratio: 1.007 ± 0.0034

TAAGTGTTGG
switch fluorescence ratio: 1 ± 0.018

TAAGTTAATA
switch fluorescence ratio: 1.02 ± 0.016

TAAGTTAGCC
switch fluorescence ratio: 1.049 ± 0.005

TAAGTTAGGT
switch fluorescence ratio: 1.03 ± 0.1

TAAGTTGTAA
switch fluorescence ratio: 0.999 ± 0.019

TAAGTTTTCA
switch fluorescence ratio: 1.02 ± 0.023

TAATAAATCT
switch fluorescence ratio: 0.9967 ± 0.0051

TAATAATCCA
switch fluorescence ratio: 0.994 ± 0.017

TAATACCCCG
switch fluorescence ratio: 1.06 ± 0.054

TAATACGTTT
switch fluorescence ratio: 0.986 ± 0.032

TAATACTATT
switch fluorescence ratio: 1.05 ± 0.016

TAATAGAATT
switch fluorescence ratio: 1 ± 0.014

TAATATAACC
switch fluorescence ratio: 1.04 ± 0.014

TAATATAGGT
switch fluorescence ratio: 1.018 ± 0.0097

TAATATAGTG
switch fluorescence ratio: 1.02 ± 0.045

TAATATCGGG
switch fluorescence ratio: 0.98 ± 0.027

TAATATCTTT
switch fluorescence ratio: 0.995 ± 0.054

TAATATGGGG
switch fluorescence ratio: 1.01 ± 0.039

TAATATGGTG
switch fluorescence ratio: 0.998 ± 0.014

TAATCAACGA
switch fluorescence ratio: 1 ± 0.019

TAATCAATAT
switch fluorescence ratio: 1.013 ± 0.0017

TAATCATCGA
switch fluorescence ratio: 0.99 ± 0.017

TAATCATGGT
switch fluorescence ratio: 0.969 ± 0.024

TAATCCCTTT
switch fluorescence ratio: 1.01 ± 0.04

TAATCCGGTC
switch fluorescence ratio: 1.04 ± 0.094

TAATCGTC
switch fluorescence ratio: 0.968 ± 0.023

TAATCGTGCT
switch fluorescence ratio: 0.973 ± 0.019

TAATCTAGGG
switch fluorescence ratio: 0.985 ± 0.046

TAATCTGAGT
switch fluorescence ratio: 1.01 ± 0.025

TAATGAATGT
switch fluorescence ratio: 1.02 ± 0.04

TAATGAGGGG
switch fluorescence ratio: 0.992 ± 0.033

TAATGAGTGG
switch fluorescence ratio: 1.0154 ± 0.001

TAATGATTTT
switch fluorescence ratio: 0.967 ± 0.031

TAATGGAAAT
switch fluorescence ratio: 0.979 ± 0.022

TAATGGCTCG
switch fluorescence ratio: 1 ± 0.008

TAATGGGCGA
switch fluorescence ratio: 0.976 ± 0.064

TAATGGGCTT
switch fluorescence ratio: 0.997 ± 0.012

TAATGGGGCG
switch fluorescence ratio: 0.997 ± 0.025

TAATGGGTGG
switch fluorescence ratio: 1.02 ± 0.083

TAATGGTCGT
switch fluorescence ratio: 0.989 ± 0.029

TAATGGTCTT
switch fluorescence ratio: 1.02 ± 0.14

TAATGTAAAA
switch fluorescence ratio: 0.992 ± 0.01

TAATGTGGGA
switch fluorescence ratio: 0.96651 ± 0.00012

TAATGTGTAC
switch fluorescence ratio: 1.024 ± 0.0044

TAATGTGTGT
switch fluorescence ratio: 1.016 ± 0.0091

TAATGTGTTA
switch fluorescence ratio: 1.04 ± 0.13

TAATGTTTTT
switch fluorescence ratio: 0.985 ± 0.039

TAATTAATCT
switch fluorescence ratio: 0.992 ± 0.049

TAATTAATTT
switch fluorescence ratio: 1.02 ± 0.025

TAATTACAGT
switch fluorescence ratio: 0.9904 ± 0.0021

TAATTATGGG
switch fluorescence ratio: 1.04 ± 0.056

TAATTATTAA
switch fluorescence ratio: 1.01 ± 0.019

TAATTCGGCA
switch fluorescence ratio: 0.995 ± 0.0044

TAATTGATTA
switch fluorescence ratio: 1.0033 ± 0.00096

TAATTGCTTT
switch fluorescence ratio: 0.966 ± 0.029

TAATTGGACT
switch fluorescence ratio: 1.01 ± 0.013

TAATTGGGTG
switch fluorescence ratio: 1.09 ± 0.031

TAATTTAAAG
switch fluorescence ratio: 1 ± 0.041

TAATTTAAGT
switch fluorescence ratio: 1.01 ± 0.028

TAATTTCCTT
switch fluorescence ratio: 1.06 ± 0.16

TAATTTCTAA
switch fluorescence ratio: 0.9946 ± 0.0029

TAATTTGAGT
switch fluorescence ratio: 1 ± 0.014

TAATTTGATG
switch fluorescence ratio: 0.979 ± 0.027

TAATTTGGTT
switch fluorescence ratio: 1.01 ± 0.026
